In PMC2929534 (Biochemistry, 2010):
Like-named read-outs stand apart in the source and are kept apart here.

Assays:
[1] = molecular target: AsiA M1A mutant (bacteriophage T4) (UniProt P32267); experiment: dynamic light scattering
[2] = molecular target: AsiA M1A mutant (bacteriophage T4) (UniProt P32267); experiment: AUC
dynamic light scattering = molecular target: the molecule itself; experiment: dynamic light scattering
AUC [3] = molecular target: the molecule itself; experiment: AUC
AUC [4] = molecular target: the molecule itself; experiment: AUC; remark: listed apart in the source
[5] = molecular target: σ^70 subunit of Escherichia coli RNA polymerase (E. coli, UniProt P00579 1-613); experiment: native gel or EMSA

## AsiA M1A mutant (from UniProt P32267 1-90) (natural protein)
[1]
  stoichiometry N: 2
[2]
  Ka: 3.8e+06 M⁻¹
  Kd: 260 nM
  stoichiometry N: 2

B1: AsiA protein (wild type) (natural protein, bacteriophage T4, UniProt P32267 1-90, looked up)
chain: MNKNIDTVREIITVASILIKFSREDIVENRANFIAFLNEIGVTHEGRKLNQNSFRKIVSELTQEDKKTLIDEFNEGFEGVYRYLEMYTNK
Dynamic light scattering
  stoichiometry N: 2
AUC [3]
  Ka: 2.8e+06 M⁻¹
  Kd: 350 nM

B2: AsiA I17A mutant (natural protein, bacteriophage T4, UniProt P32267 1-90, looked up)
chain: MNKNIDTVREIITVASALIKFSREDIVENRANFIAFLNEIGVTHEGRKLNQNSFRKIVSELTQEDKKTLIDEFNEGFEGVYRYLEMYTNK
Dynamic light scattering
  stoichiometry N: 2
AUC [3]
  Ka: 200000 M⁻¹
  Kd: 4900 nM

B3: AsiA I17A/I40A double mutant (natural protein, bacteriophage T4, UniProt P32267 1-90, looked up)
chain: MNKNIDTVREIITVASALIKFSREDIVENRANFIAFLNEAGVTHEGRKLNQNSFRKIVSELTQEDKKTLIDEFNEGFEGVYRYLEMYTNK
AUC [4]
  Ka: 1400 M⁻¹
  Kd: 694000 nM

B4: AsiA L18A mutant (natural protein, bacteriophage T4, UniProt P32267 1-90, looked up)
chain: MNKNIDTVREIITVASIAIKFSREDIVENRANFIAFLNEIGVTHEGRKLNQNSFRKIVSELTQEDKKTLIDEFNEGFEGVYRYLEMYTNK
[5]
  binding result: binds

B5: AsiA K20A mutant (natural protein, bacteriophage T4, UniProt P32267 1-90, looked up)
chain: MNKNIDTVREIITVASILIAFSREDIVENRANFIAFLNEIGVTHEGRKLNQNSFRKIVSELTQEDKKTLIDEFNEGFEGVYRYLEMYTNK
Dynamic light scattering
  stoichiometry N: 2
AUC [3]
  Ka: 2.1e+06 M⁻¹
  Kd: 480 nM

B6: AsiA F21A mutant (natural protein, bacteriophage T4, UniProt P32267 1-90, looked up)
chain: MNKNIDTVREIITVASILIKASREDIVENRANFIAFLNEIGVTHEGRKLNQNSFRKIVSELTQEDKKTLIDEFNEGFEGVYRYLEMYTNK
Dynamic light scattering
  stoichiometry N: 2
AUC [3]
  Ka: 4.7e+06 M⁻¹
  Kd: 210 nM

B7: AsiA E39A mutant (natural protein, bacteriophage T4, UniProt P32267 1-90, looked up)
chain: MNKNIDTVREIITVASILIKFSREDIVENRANFIAFLNAIGVTHEGRKLNQNSFRKIVSELTQEDKKTLIDEFNEGFEGVYRYLEMYTNK
Dynamic light scattering
  stoichiometry N: 2
AUC [3]
  Ka: 5.7e+06 M⁻¹
  Kd: 180 nM

B8: AsiA I40A mutant (natural protein, bacteriophage T4, UniProt P32267 1-90, looked up)
chain: MNKNIDTVREIITVASILIKFSREDIVENRANFIAFLNEAGVTHEGRKLNQNSFRKIVSELTQEDKKTLIDEFNEGFEGVYRYLEMYTNK
Dynamic light scattering
  stoichiometry N: 2
AUC [3]
  Ka: 360000 M⁻¹
  Kd: 2700 nM

B9: AsiA V14A mutant (natural protein, bacteriophage T4, UniProt P32267 1-90, looked up)
chain: MNKNIDTVREIITAASILIKFSREDIVENRANFIAFLNEIGVTHEGRKLNQNSFRKIVSELTQEDKKTLIDEFNEGFEGVYRYLEMYTNK
Dynamic light scattering
  stoichiometry N: 2
AUC [3]
  Ka: 820000 M⁻¹
  Kd: 1200 nM
